Changes are numbered by the printed parent chain. Numbers in names are those of the source. Where two headings read alike, the source gives them in different places.
How the values were obtained:
mAOX3-FeSI-mAOX1 [1] = tested on: T1, mAOX3-FeSI-mAOX1; assay: steady-state kinetics, DCPIP reduction at […] nm; assay type: biochemical, Mus musculus; conditions: 100 µM DCPIP as electron acceptor, 50 mM Tris-HCl pH 8.0, 1 mM EDTA, 37 °C; kcat corrected for Mo content
T1 construct: gene Aox3; mAOX3 with A87-Q214 replaced by T83-Q213 of mAOX1 (FeSI domain); N-terminal His6-tag; E. coli; dimer

mAOX3-FeSII-FeSI-mAOX1 [2] = tested on: T2, mAOX3-FeSII-FeSI-mAOX1; assay: steady-state kinetics, DCPIP reduction at […] nm; assay type: biochemical, Mus musculus; conditions: 100 µM DCPIP as electron acceptor, 50 mM Tris-HCl pH 8.0, 1 mM EDTA, 37 °C; kcat corrected for Mo content
T2 construct: gene Aox3; mAOX3 with M1-Q214 replaced by M1-Q213 of mAOX1 (both FeS domains); N-terminal His6-tag; E. coli; dimer

mAOX3-FeSII-mAOX1 [3] = tested on: T3, mAOX3-FeSII-mAOX1; assay: steady-state kinetics, DCPIP reduction at […] nm; assay type: biochemical, Mus musculus; conditions: 100 µM DCPIP as electron acceptor, 50 mM Tris-HCl pH 8.0, 1 mM EDTA, 37 °C, kcat corrected for Mo content
T3 construct: gene Aox3; mAOX3 with M1-P80 replaced by M1-P76 of mAOX1 (FeSII domain); N-terminal His6-tag; E. coli; dimer

mAOX3-FeSII-FeSI-mAOX1 [4] = tested on: T4, mAOX3-FeSII-FeSI-mAOX1; conditions: read-out: mAOX3-FeSII-FeSI-mAOX1; O2 (air-saturated buffer) as electron acceptor, 50 mM Tris-HCl pH 8.0, 1 mM EDTA, 37 °C; kcat corrected for Mo content
T4 construct: gene Aox3

mAOX3-FeSI-mAOX1 [5] = tested on: T5, mAOX3-FeSI-mAOX1; conditions: read-out: mAOX3-FeSI-mAOX1; O2 (air-saturated buffer) as electron acceptor, 50 mM Tris-HCl pH 8.0, 1 mM EDTA, 37 °C; kcat corrected for Mo content
T5 construct: gene Aox3

mAOX3-FeSII-mAOX1 [6] = tested on: T6, mAOX3-FeSII-mAOX1; conditions: read-out: mAOX3-FeSII-mAOX1; O2 (air-saturated buffer) as electron acceptor, 50 mM Tris-HCl pH 8.0, 1 mM EDTA, 37 °C; kcat corrected for Mo content
T6 construct: gene Aox3

purified protein [7] = substrate: c1ccc2c(c1)cnc1ccccc12; assay: purified protein; conditions: O2 (air-saturated buffer) as electron acceptor, 50 mM Tris-HCl pH 8.0, 1 mM EDTA, 37 °C, kcat corrected for Mo content
purified protein [8] = substrate: C[n+]1cccc(C(N)=O)c1; assay: purified protein; assay type: biochemical, Mus musculus; conditions: 100 µM DCPIP as electron acceptor, 50 mM Tris-HCl pH 8.0, 1 mM EDTA, 37 °C, kcat corrected for Mo content
purified protein [9] = substrate: O=Cc1ccccc1; assay: purified protein; assay type: biochemical, Mus musculus; conditions: 100 µM DCPIP as electron acceptor, 50 mM Tris-HCl pH 8.0, 1 mM EDTA, 37 °C, kcat corrected for Mo content
purified protein [10] = substrate: c1ccc2cnncc2c1; assay: purified protein; assay type: biochemical, Mus musculus; conditions: 100 µM DCPIP as electron acceptor, 50 mM Tris-HCl pH 8.0, 1 mM EDTA, 37 °C, kcat corrected for Mo content
purified protein [11] = substrate: O=c1[nH]cnc2nc[nH]c12; assay: purified protein; assay type: biochemical, Mus musculus; conditions: 100 µM DCPIP as electron acceptor, 50 mM Tris-HCl pH 8.0, 1 mM EDTA, 37 °C, kcat corrected for Mo content
purified protein [12] = substrate: Oc1ncnc2[nH]ncc12; assay: purified protein; assay type: biochemical, Mus musculus; conditions: 100 µM DCPIP as electron acceptor, 50 mM Tris-HCl pH 8.0, 1 mM EDTA, 37 °C, kcat corrected for Mo content

## O=c1[nH]cnc2[nH]ncc12 [allopurinol]
mAOX3-FeSI-mAOX1 [1]
  Km: 1340 ± 43 µM

## c1ccc2cnncc2c1 [phthalazine]
mAOX3-FeSII-FeSI-mAOX1 [2]
  Km: 1 ± 0.1 µM
mAOX3-FeSII-mAOX1 [3]; read-out: mAOX3-WT ^4
  Km: 1.4 ± 0.2 µM
mAOX3-FeSI-mAOX1 [1]
  Km: 1.2 ± 0.1 µM

## O=Cc1ccccc1 [benzaldehyde]
mAOX3-FeSII-FeSI-mAOX1 [2]
  Km: 2.2 ± 0.1 µM
mAOX3-FeSII-mAOX1 [3]; read-out: mAOX3-FeSII-mAOX1
  Km: 1.6 ± 0.1 µM
mAOX3-FeSI-mAOX1 [1]
  Km: 3.6 ± 0.3 µM

## c1ccc2c(c1)cnc1ccccc12 [phenanthridine]
mAOX3-FeSII-FeSI-mAOX1 [4]
  Km: 28 ± 2 µM
mAOX3-FeSI-mAOX1 [5]
  Km: 35 ± 2 µM
mAOX3-FeSII-mAOX1 [6]
  Km: 30 ± 5 µM

B1: mAOX3 (mouse aldehyde oxidase 3) (Mus musculus; P1015G) (protein)
chain: MSPSKESDELIFFVNGKKVTERNADPEVNLLFYLRKVIRLTGTKYGCGGGDCGACTVMISRYDPISKRISHFSATACLVPICSLHGAAVTTVEGIGSTKTRIHPVQERIAKGHGTQCGFCTPGMVMSIYTLLRNHPEPSTEQIMETLGGNLCRCTGYRPIVESAKSFCPSSTCCQMNGEGKCCLDEEKNEPERKNSVCTKLYEKKEFQPLDPTQELIFPPELMRMAEESQNTVLTFRGERTTWIAPGTLNDLLELKMKHPSAPLVIGNTYLGLHMKFTDVSYPIIISPARILELFVVTNTKQGLTLGAGLSLTQVKNVLSDVVSRLPKEKTQIYCALLKQLKTLAGQQIRNVASLGGHIISRLPTSDLNPILGIGNCILNVASTEGIQQIPLNDHFLAGVPDAILKPEQVLISVFVPRSSKWEFVSAFRQAPRQQNAFATVNAGMKVVFKEDTNTITDLGILYGGIGATVISADKSCRQLIGRCWDEEMLDDAGKMICEEVSLLMAAPGGMEEYRKTLAISFLFMFYLDVLKQLKTRDPHKYPDISQKLLHILEDFPLTMPYGMQSFQDVDFQQPLQDPIGRPIMHQSGIKHATGEAVFCDDMSVLPGELFLAVVTSSKSHAKIISLDASEALASLGVVDVVTARDVPGDNGREEESLYAQDEVICVGQIVCAVAADSYAHAQQAAKKVKIVYQDIEPMIVTVQDALQYESFIGPERKLEQGNVEEAFQCADQILEGEVHLGGQEHFYMETQSVRVVPKGEDKEMDIYVSSQDAAFTQEMVARTLGIPKNRINCHVKRVGGAFGGKASKPGLLASVAAVAAQKTGRPIRFILERRDDMLITGGRHPLLGKYKIGFMNNGKIKAADIQLYINGGCTPDDSELVIEYALLKLENAYKIPNLRVRGRVCKTNLPSNTAFRGFGFPQGAFVTETCMSAVAAKCRLPPEKVRELNMYRTIDRTIHNQEFDPTNLLQCWEACVENSSYYNRKKAVDEFNQQRFWKKRGIAIIPMKFSVGFGKTFYYQAAALVQIYTDGSVLVAHGGVELGQGINTKMIQVASRELKIPMSYIHLDEMSTVTVPNTVTTGASTGADVNGRAVQNACQILMKRLEPIIKQNPSGTWEEWVKEAFVQSISLSATGYFRGYQADMDWEKGEGDIFPYFVFGAACSEVEIDCLTGAHKNIRTDIVMDGSFSINPAVDIGQIEGAFVQGLGLYTLEELKYSPEGVLYTRGPHQYKIASVTDIPEEFHVSLLTPTPNPKAIYSSKGLGEAGTFLGCSVFFAIAAAVAAAREERGLSPIWAINSPATAEVIRMACEDQFTNLVPQTDSKCCKPWSIPVA
Purified protein [7]
  Km: 47 ± 2 µM
  kcat: 8.83 s⁻¹
  kcat/Km: 189000 M⁻¹ s⁻¹

B2: mAOX3 (mouse aldehyde oxidase 3) (Mus musculus; P1015A) (protein)
chain: B1 chain with G1015A
notes: N-terminal His6-tag, full length, plasmid pMMA1, expressed in E. coli; homodimer with Moco, two [2Fe-2S], FAD
Purified protein [8]
  Km: 87 ± 3.4 µM
  kcat: 1.08 ± 0.183 s⁻¹
  kcat/Km: 12400 ± 2200 M⁻¹ s⁻¹

B3: mAOX3 (mouse aldehyde oxidase 3) (Mus musculus; F1014I) (protein)
chain: B1 chain with F1014I, G1015P
notes: as for B2
Purified protein [9]
  Km: 22.7 ± 2.7 µM
  kcat: 0.317 ± 0.05 s⁻¹
  kcat/Km: 13300 ± 3330 M⁻¹ s⁻¹

B4: mAOX3 (mouse aldehyde oxidase 3) (Mus musculus; F1014V) (protein)
chain: B1 chain with F1014V, G1015P
notes: as for B2
Purified protein [10]
  Km: 12.5 ± 0.6 µM
  kcat: 4.63 ± 0.233 s⁻¹
  kcat/Km: 372000 ± 25000 M⁻¹ s⁻¹

B5: mAOX3 (mouse aldehyde oxidase 3) (Mus musculus; A807E/D878L/F776K/K889H/L881S/P1015T/Y1019L/Y885R) (protein)
chain: B1 chain with F776K, A807E, D878L, L881S, Y885R, K889H, G1015T, Y1019L
notes: as for B2
Purified protein [9]
  Km: 2122 ± 88 µM
  kcat: 3.9 ± 0.25 s⁻¹
  kcat/Km: 1830 ± 133 M⁻¹ s⁻¹
Purified protein [11]
  Km: 4085 ± 227 µM
  kcat: 0.417 ± 0.0167 s⁻¹
  kcat/Km: 104 ± 8 M⁻¹ s⁻¹
Purified protein [12]
  Km: 133 ± 10 µM
  kcat: 1.58 ± 0.1 s⁻¹
  kcat/Km: 12000 ± 1120 M⁻¹ s⁻¹

B6: mAOX3 (mouse aldehyde oxidase 3) (Mus musculus; A807E/D878L/F776K/G1013S/K1016V/K889H/L881S/P1015T/S1011G/V1012I/Y1019L/Y1020N/Y885R) (protein)
chain: MSPSKESDELIFFVNGKKVTERNADPEVNLLFYLRKVIRLTGTKYGCGGGDCGACTVMISRYDPISKRISHFSATACLVPICSLHGAAVTTVEGIGSTKTRIHPVQERIAKGHGTQCGFCTPGMVMSIYTLLRNHPEPSTEQIMETLGGNLCRCTGYRPIVESAKSFCPSSTCCQMNGEGKCCLDEEKNEPERKNSVCTKLYEKKEFQPLDPTQELIFPPELMRMAEESQNTVLTFRGERTTWIAPGTLNDLLELKMKHPSAPLVIGNTYLGLHMKFTDVSYPIIISPARILELFVVTNTKQGLTLGAGLSLTQVKNVLSDVVSRLPKEKTQIYCALLKQLKTLAGQQIRNVASLGGHIISRLPTSDLNPILGIGNCILNVASTEGIQQIPLNDHFLAGVPDAILKPEQVLISVFVPRSSKWEFVSAFRQAPRQQNAFATVNAGMKVVFKEDTNTITDLGILYGGIGATVISADKSCRQLIGRCWDEEMLDDAGKMICEEVSLLMAAPGGMEEYRKTLAISFLFMFYLDVLKQLKTRDPHKYPDISQKLLHILEDFPLTMPYGMQSFQDVDFQQPLQDPIGRPIMHQSGIKHATGEAVFCDDMSVLPGELFLAVVTSSKSHAKIISLDASEALASLGVVDVVTARDVPGDNGREEESLYAQDEVICVGQIVCAVAADSYAHAQQAAKKVKIVYQDIEPMIVTVQDALQYESFIGPERKLEQGNVEEAFQCADQILEGEVHLGGQEHFYMETQSVRVVPKGEDKEMDIYVSSQDAAKTQEMVARTLGIPKNRINCHVKRVGGAFGGKESKPGLLASVAAVAAQKTGRPIRFILERRDDMLITGGRHPLLGKYKIGFMNNGKIKAADIQLYINGGCTPDLSESVIERALLHLENAYKIPNLRVRGRVCKTNLPSNTAFRGFGFPQGAFVTETCMSAVAAKCRLPPEKVRELNMYRTIDRTIHNQEFDPTNLLQCWEACVENSSYYNRKKAVDEFNQQRFWKKRGIAIIPMKFGISFTVTFLNQAAALVQIYTDGSVLVAHGGVELGQGINTKMIQVASRELKIPMSYIHLDEMSTVTVPNTVTTGASTGADVNGRAVQNACQILMKRLEPIIKQNPSGTWEEWVKEAFVQSISLSATGYFRGYQADMDWEKGEGDIFPYFVFGAACSEVEIDCLTGAHKNIRTDIVMDGSFSINPAVDIGQIEGAFVQGLGLYTLEELKYSPEGVLYTRGPHQYKIASVTDIPEEFHVSLLTPTPNPKAIYSSKGLGEAGTFLGCSVFFAIAAAVAAAREERGLSPIWAINSPATAEVIRMACEDQFTNLVPQTDSKCCKPWSIPVA
notes: as for B2
Purified protein [11]
  Km: 1736 ± 155 µM
  kcat: 0.0833 s⁻¹
  kcat/Km: 47.8 ± 5.83 M⁻¹ s⁻¹
Purified protein [12]
  Km: 620 ± 16 µM
  kcat: 0.65 ± 0.05 s⁻¹
  kcat/Km: 1050 ± 83.3 M⁻¹ s⁻¹

B7: mAOX3 (mouse aldehyde oxidase 3) (Mus musculus; A807E/D878L/F776K/L881S/P1015T/Y1019L/Y885R) (protein)
chain: B6 chain with H889K, G1011S, I1012V, S1013G, V1016K, N1020Y
notes: as for B2
Purified protein [12]
  Km: 2933 ± 380 µM
  kcat: 0.233 ± 0.0167 s⁻¹
  kcat/Km: 83.3 ± 16.7 M⁻¹ s⁻¹

— PMC3864932, “Identification of Crucial Amino Acids in Mouse Aldehyde Oxidase 3 That Determine Substrate Specificity” (PLoS ONE, 2013)
